The values below come from US20120315270A1.

The target of experiment [1] is RSV F glycoprotein on GFP-expressing RSV (respiratory syncytial virus) (UniProt P03420).
Experiment [2] deals with RSV F0 Fd (respiratory syncytial virus, strain A2) (UniProt P03420). Kind of experiment: densitometry of SDS-PAGE of the gel filtration complex peak. Background: Size exclusion chromatography separates by hydrodynamic size, large species first.

In experiment [1], SYNAGIS® IgG (palivizumab) (antibody) returned an EC50 (read off the curve), neutralization of GFP-expressing RSV on HEp-2 cells, flow cytometry of 0.5 nM. Substance palivizumab Fab displayed a Fabs per trimer (Fabs per trimer) in experiment [2] of 2.97.
